In this experiment the target is human CD3 antigen (human) (UniProt P07766). The experiment in a line: competitive flow cytometry on HPBALL cells; competitor: biotinylated monovalent humanised CD3 Mab. (A flow cytometer gives signals particle by particle.)
Sequence of UniProt P07766 (P07766 23-207): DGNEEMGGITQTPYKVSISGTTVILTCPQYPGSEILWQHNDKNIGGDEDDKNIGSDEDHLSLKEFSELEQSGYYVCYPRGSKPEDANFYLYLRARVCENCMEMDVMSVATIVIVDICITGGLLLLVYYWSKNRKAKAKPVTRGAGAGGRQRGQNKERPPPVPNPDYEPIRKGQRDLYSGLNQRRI

B1: humanised bivalent CD3 Mab (antibody, V domains shown)
VH: EVQLLESGGGLVQPGGSLRLSCAASGFTFSSFPMAWVRQAPGKGLEWVSTISTSGGRTYYRDSVKGRFTISRDNSKNTLYLQMNSLRAEDTAVYYCAKFRQYSGGFDYWGQGTLVTVSS
VL: DFMLTQPHSVSESPGKTVIISCTLSSGNIENNYVHWYQQRPGRAPTTVIFDDDKRPDGVPDRFSGSIDRSSNSASLTISGLQTEDEADYYCHSYVSSFNVFGGGTKLTVL
For the molecule B1, the fold concentration for 50% competition, against rat YTH12.5 Mab is 1.3 fold.

The record behind these values is patent US5968509.
